The term Kd denotes the free concentration of one partner at which half of the binding sites on the other are occupied at equilibrium, for simple one-to-one binding. High values mean weaker binding, low ones tighter binding. Usually koff stands for the first-order rate constant of dissociation. High values mean fast dissociation, low ones slow dissociation. The term kon denotes the rate constant with which the complex forms. High values mean faster complex formation, low ones slower complex formation.

Where two headings read alike, the source gives them in different places.

For assay [1], the target named is T1, human CD33 on primary human monocyte-derived dendritic cells (human, UniProt P20138 18-364). Put plainly: cell-based or functional assay.
Assay [2] has as its target T2, human CD33 (human, UniProt P20138 18-259, limits assumed).
T2 construct: Human CD33 immobilized on the BLI sensor tip or the BIAcore C1 chip; also called Siglec-3
Nature of the assay: BLI (ForteBio), Fab 100 nM on immobilized CD33. How it is done:
(§1) The affinities (KD) of the humanized antibodies for human CD33 were measured for each antibody by BioLayer Interferometry in a ForteBio assay according to standard techniques (Estep et al. (2013) MAbs 5(2): 270-8). […] The assay was carried out at room temperature.
The affinities of AB-H14 and its affinity-matured variants (Table 15) and AB-H63 and its affinity-matured variants (Table 16), for human CD33 were measured by Fortebio assay according to the method described in Example 1 above.
In general terms: BLI is a label-free optical method that tracks binding on a fibre tip over time.

In assay [3] the target is T1, human CD33 on primary human …. Nature of the assay: cell-based or functional assay. The source holds these as a separate data set.
The target of assay [4] is T2, human CD33. Nature of the assay: BLI (ForteBio), Fab 100 nM on immobilized CD33. As to the method: as §1
The affinity parameters of two of the antibodies, 64.1.2 and 64.1.8, were measured in a separate experiment by BIAcore, where they were directly compared to the parental antibody, AB-64.1, the parental humanized antibody, AB-H64, and the Chimeric Ab.
This is another data set of the same source.

Assay [5] has as its target T1, human CD33 on primary human …. Put plainly: cell-based or functional assay. The source holds these as a separate data set.
Assay [6] shares this target. Put plainly: cell-based or functional assay. The source holds these as a separate data set.
Assay [7] addresses T2, human CD33. Nature of the assay: SPR (BIAcore), Fab over CD33 on C1 chip. As to the method: The affinity parameters for 10 of the 88 humanized antibodies (AB-H1, AB-H3, AB-H6, AB-H11, AB-H22, AB-H24, AB-H26, AB-H63, AB-H64, and AB-H71) were measured in a separate experiment by a more sensitive technique, surface plasmon resonance (BIAcore), and compared to Chimeric Ab and Chimeric Ab #2. BIAcore measurements were performed as follows: human CD33 was immobilized on the surface of a C1 chip, and Fabs were injected for 300 s to monitor association, followed by a 900 s flow in running buffer to monitor dissociation. The Fabs were measured at 5 concentrations: a high concentration of 27 nM and 3-fold serial dilutions.
A general note: SPR reads the build-up and loss of mass on a sensor chip optically.

T2 sequence (P20138 18-259 limits assumed): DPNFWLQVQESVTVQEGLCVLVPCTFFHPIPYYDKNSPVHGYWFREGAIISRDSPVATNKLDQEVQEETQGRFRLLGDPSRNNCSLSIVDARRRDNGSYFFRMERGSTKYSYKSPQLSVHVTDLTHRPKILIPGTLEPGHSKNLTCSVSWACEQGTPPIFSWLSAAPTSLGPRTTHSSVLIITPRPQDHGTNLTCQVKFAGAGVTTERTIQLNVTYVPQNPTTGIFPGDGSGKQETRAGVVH
T1 sequence (P20138 18-364): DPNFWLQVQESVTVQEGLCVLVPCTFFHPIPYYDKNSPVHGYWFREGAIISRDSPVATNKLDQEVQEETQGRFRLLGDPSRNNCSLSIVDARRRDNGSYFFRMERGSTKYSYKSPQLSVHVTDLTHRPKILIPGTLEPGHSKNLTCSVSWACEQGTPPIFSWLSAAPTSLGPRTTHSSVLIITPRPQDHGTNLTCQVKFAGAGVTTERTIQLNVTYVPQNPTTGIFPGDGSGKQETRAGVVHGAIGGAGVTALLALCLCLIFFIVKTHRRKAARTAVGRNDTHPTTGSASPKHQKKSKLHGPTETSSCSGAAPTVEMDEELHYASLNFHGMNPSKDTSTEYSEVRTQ

B1: AB-14.9 (antibody, V domains shown)
VH: QVQLVQSGAEVKKPGASVKVSCKASGYTFTDYNYHWVRQAPGQGLEWIGFIYPSNGITGYAQKFQGRVTMTVDTSTSTVYMELSSLRSEDTAVYYCARSDVDYFDYWGQGTLVTVSS
VL: GIQMTQSPSSLSASVGDRVTITCRASQSVGTSTYSYMHWYQQKPGKAPKLLIKYAVNLESGVPSRFSGSGSGTDFTLTISSLQPEDFATYYCQHSWEIPLTFGQGTKLEIK
Take B1: in assay [1], the “Maximal Downregulation (% CD33 remaining)” value is 26.1% and the “Receptor downregulation (EC50)” value was determined as 0.0399 nM. Moreover, in the assay with human CD33 [2], the “Fold affinity improvement over parental Ab (AB-H14)” value (from here on “Fold affinity improvement”) was 13.4 fold, binding was put at a Kd of 0.217 nM, the koff stood at 0.0002 s⁻¹ and the kon is 921000 M⁻¹ s⁻¹.

B2: AB-64.1.4 (antibody, V domains shown)
VH: QVQLVQSGAEVKKPGASVKISCKASGYTFTDYNLHWVRQAPGQGLEWIGFIYPSNGITGYAQKFQGRATLTVDTSTSTAYMELSSLRSEDTAVYYCARSDVDYFDYWGQGTLLTVSS
VL: DIVLTQSPDSLAVSLGERATINCRASQSVSTSTYSYMHWYQQKPGQPPKLLIKYASNLESGVPDRFSGSGSGTDFTLTISSLQAEDVAVYYCQHSWEIPLTFGQGTKLEIK
notes: Variant of AB-64.1
For the molecule B2, in assay [3], the “Receptor downregulation (% remaining at 0.16 µg/mL antibody)” value was determined as 38%. This molecule also had an equilibrium dissociation constant (Kd) with human CD33 [4] of 0.639 nM.

B3: AB-14.10 (antibody, V domains shown)
VH: QVQLVQSGAEVKKPGASVKVSCKASGYTFTDYNYHWVRQAPGQGLEWIGFIYPSNGITGYAQKFQGRVTMTVDTSTSTVYMELSSLRSEDTAVYYCARSDVDYFDYWGQGTLVTVSS
VL: DIQMTQSPSSLSASVGDRVTITCRASQSVSASTYSYMHWYQQKPGKAPKLLIKYASNLESGVPSRFSGSGSGTDFTLTISSLQPEDLATYYCQHSWEIPLTFGQGTKLEIK
For the molecule B3, in assay [1], the “Maximal Downregulation (% CD33 remaining)” value came to 20.9% and the “Receptor downregulation (EC50)” value amounted to 0.0494 nM. Also, in the assay with human CD33 [2], the “Fold affinity improvement” value was 13.2 fold, the Kd was 0.221 nM, the koff was 0.0002 s⁻¹ and the kon turned out to be 906000 M⁻¹ s⁻¹.

B4: AB-14.11 (antibody, V domains shown)
VH: QVQLVQSGAEVKKPGASVKVSCKASGYTFTDYNYHWVRQAPGQGLEWIGFIYPSNGITGYAQKFQGRVTMTVDTSTSTVYMELSSLRSEDTAVYYCARSSVDYFDYWGQGTLVTVSS
VL: DIQMTQSPSSLSASVGDRVTITCRASQDVSTSTYSYMHWYQQKPGKAPKLLIKYVSNLESGVPSRFSGSGSGTDFTLTISSLQPEDFATYYCQHSWEIPLTFGQGTKLEIK
Regarding B4, in assay [1], the “Maximal Downregulation (% CD33 remaining)” value turned out to be 27.5% and the “Receptor downregulation (EC50)” value came to 0.047 nM. In the assay with human CD33 [2], the “Fold affinity improvement” value turned out to be 14.1 fold, the Kd is 0.205 nM, the koff came to 0.0002 s⁻¹ and the kon is 974000 M⁻¹ s⁻¹.

B5: AB-64.1.1 (antibody, V domains shown)
VH: QVQLVQSGAEVKKPGASVKISCKASGYTFTDYNLHWVRQAPGQGLEWIGFIYPSNQITGYAQKFQGRATLTVDNSTSTAYMELSSLRSEDTAVYYCARSDVDYFDYWGQGTLLTVSS
VL: DIVLTQSPDSLAVSLGERATINCRASQSVSTSTYSYMHWYQQKPGQPPKLLIKYASNLESGVPDRFSGSGSGTDFTLTISSLQAEDVAVYYCQHSWEIPLTFGQGTKLEIK
notes: Variant of AB-64.1
B5: the “Receptor downregulation (% remaining at 0.16 µg/mL antibody)” value in assay [3] came out at 37%. This molecule also showed a Kd in the assay with human CD33 [4] of 0.429 nM.

B6: Chimeric Ab #2 (antibody, V domains shown)
VH: EVQLQQSGPELVKPGASVKISCKASGYTFTDYNLHWVKLSHGKSLEWIGFIYPSNGITGYNQKFKNKATLTVDTSSSTAYMELRSLTSEDSAVYYCARSTVDYFDYWGQGTTLTVSS
VL: DIVLTQSPASLAVSLGQRATMSCRASQSVSTSTYSYMHWYQQKPGQPPKLLIKYASNLESGVPARFSGSGSGTDFTLNIHPVEEEDTATYYCQHSWEIPLTFGAGTKLELK
notes: Chimeric Ab with a VH-FR3 mutation that removes the predicted N-glycosylation site
For the molecule B6, in assay [5], the “Maximal Downregulation (% CD33 remaining)” value stood at 23.2% and the “Receptor downregulation (EC50)” value worked out at 0.119 nM. Also, in assay [6], the “Maximal Downregulation (% CD33 remaining)” value worked out at 23.2% and the “Receptor downregulation (EC50)” value is 0.119 nM. In the assay with human CD33 [7], the “Fold Change to Chimeric Ab” value worked out at 0.56 fold; the affinity, expressed as Kd, was 2.89 nM; the koff turned out to be 0.00286 s⁻¹; the kon worked out at 991000 M⁻¹ s⁻¹.

The record behind these values is patent US20210139581A1 (Alector, published 2021).
